The results in this text go back to patent US20150368338A1 (Janssen / Centocor, published 2015).

In assay [1] the target is IFN-α4a (human, UniProt P05014 24-189). The assay can be described thus: cell-based or functional assay.
For assay [2], the target named is T1, IFN-αI (human, UniProt P01571 24-189). The assay can be described thus: cell-based or functional assay.
Assay [3] addresses IFN-αK (human, UniProt P05013 24-189). Put plainly: cell-based or functional assay.
Assay [4] concerns the target IFN-αJ1 (human, UniProt P01567 24-189). Put plainly: cell-based or functional assay.
Assay [5] concerns the target IFN-αWA (human, UniProt P05015 24-189). Put plainly: cell-based or functional assay.
Assay [6] has as its target T2, human IFN-ω (human, UniProt P05000 24-195). Put plainly: cell-based or functional assay.
The target of assay [7] is T3, Human IFN-ω T80E variant with a C-terminal 6xHis-Tag (human, UniProt P05000 24-195). Put plainly: complex purified by size exclusion and crystallized, X-ray structure.
In assay [8] the target is T2, human IFN-ω. Put plainly: cell-based or functional assay. The source holds these as a separate data set.
Assay [9] addresses T3, Human IFN-ω T80E variant with a …. The assay can be described thus: complex purified by size exclusion and crystallized.
Description: The Fab was received in 20 mM Tris pH 7.4, 50 mM NaCl. […] The protein was received in 20 mM Tris, pH 7.4, 50 mM NaCL.
In assay [10] the target is IFN-α4a (human, UniProt P05014 24-189). The assay can be described thus: cell-based or functional assay. The source holds these as a separate data set.
For assay [11], the target named is IFN-αWA (human, UniProt P05015 24-189). The assay can be described thus: cell-based or functional assay. This is another data set of the same source.
In a further assay the target is IFN-αG (human, UniProt P01569 24-189). The assay can be described thus: cell-based or functional assay.
The target of assay [12] is IFN-αK (human, UniProt P05013 24-189). The assay can be described thus: cell-based or functional assay. The source holds these as a separate data set.
The target in assay [13] is T1, IFN-αI. The assay can be described thus: cell-based or functional assay. This is another data set of the same source.
Assay [14] addresses IFN-αJ1 (human, UniProt P01567 24-189). The assay can be described thus: cell-based or functional assay. This is another data set of the same source.
For another assay, the target named is IFN-αC (human, UniProt P01566 24-189). The assay can be described thus: cell-based or functional assay.
Assay [15] addresses human IFN-ω (human, UniProt P05000 24-195). Put plainly: cell-based or functional assay. The source holds these as a separate data set.
In a further assay the target is IFN-αH2 (human, UniProt P01570 24-189). The assay can be described thus: cell-based or functional assay.
A further assay concerns the target T4, IFN-αF (human, UniProt P01568 24-189).
T4 chain: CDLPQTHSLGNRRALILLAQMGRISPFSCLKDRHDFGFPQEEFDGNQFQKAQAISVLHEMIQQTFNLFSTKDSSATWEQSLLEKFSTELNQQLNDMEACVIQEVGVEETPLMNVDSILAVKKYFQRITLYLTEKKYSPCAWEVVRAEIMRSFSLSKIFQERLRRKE
The assay can be described thus: cell-based or functional assay.

Assay [16] addresses T3, Human IFN-ω T80E variant with a …. The assay can be described thus: complex crystallized, X-ray structure.

B1: IFWM3385 (antibody, IgG1, V domains shown)
VH: EVQLVQSGAEVKKPGESLKISCKGSGYSFTSYWIGWVRQMPGKGLEWMGIIDPSDSDTRYSPSFQGQVTISADKSISTAYLQWSSLKASDTAMYYCARHPGLAWAPDFDYWGQGTLVTVSS
VL: DIQMTQSPSSLSASVGDRVTITCRASQSIGDFLNWYQQKPGKAPKLLIYFASSLQSGVPSRFSGSGSGTDFTLTISSLQPEDFATYYCQQALDFPLTFGQGTKVEIK
For B1, the “IC50 (pM), ISRE assay” value amounted to 414 pM in the assay with IFN-α4a [1]; 225 pM with IFN-αI [2]; 65 pM with IFN-αK [3]; 251 pM with IFN-αJ1 [4]; 839 pM with IFN-αWA [5]; 68 pM with human IFN-ω [6].

B2: Fab of IFWM3525 (Fab, V domains shown)
VH: EVQLVQSGAEVKKPGESLKISCKGSGYSFTSYWIGWVRQMPGKGLEWMGIIDPSDSDTRYSPSFQGQVTISADKSISTAYLQWSSLKASDTAMYYCARHPGLNWAPDFDYWGQGTLVTVSS
VL: DIQMTQSPSSLSASVGDRVTITCRASQSIDNSYLNWYQQKPGKAPKLLIYGASSLQSGVPSRFSGSGSGTDFTLTISSLQPEDFATYYCQQGYDFPLTFGQGTKVEIK
notes: Fab for crystallography with C-terminal 6xHis tag; also called Fab IFWM3525
B2: the binding result in [7] is “binds”.

B3: IFWM3410 (antibody, IgG1, V domains shown)
VH: EVQLVQSGAEVKKPGESLKISCKGSGYSFTSYWIGWVRQMPGKGLEWMGIIDPSDSDTRYSPSFQGQVTISADKSISTAYLQWSSLKASDTAMYYCARHPGLAWAPDFDYWGQGTLVTVSS
VL: DIQMTQSPSSLSASVGDRVTITCRASQSIANTNLNWYQQKPGKAPKLLIHWASSLQSGVPSRFSGSGSGTDFTLTISSLQPEDFATYYCQQWYDNPLTFGQGTKVEIK
Take B3: the “IC50 (pM), ISRE assay” value with IFN-α4a [1] was 192 pM; with IFN-αI [2] it was 183 pM; in the assay with IFN-αK [3], 41 pM; with IFN-αJ1 [4] it was 217 pM; with IFN-αWA [5], 538 pM; with human IFN-ω [6], 89 pM.

B4: IFWM3416 (antibody, IgG1, V domains shown)
VH: EVQLVQSGAEVKKPGESLKISCKGSGYSFTSYWIGWVRQMPGKGLEWMGIIDPSDSDTRYSPSFQGQVTISADKSISTAYLQWSSLKASDTAMYYCARHPGLAWAPDFDYWGQGTLVTVSS
VL: DIQMTQSPSSLSASVGDRVTITCRASQSIRNTNLNWYQQKPGKAPKLLIHWASSLQSGVPSRFSGSGSGTDFTLTISSLQPEDFATYYCQQGYDTPFTFGQGTKVEIK
Take B4: the “IC50 (pM), ISRE assay” value in the assay with IFN-α4a [1] stood at 201 pM; with IFN-αI [2], 158 pM; in the assay with IFN-αK [3] it was 43 pM; with IFN-αJ1 [4] it was 61 pM; in the assay with IFN-αWA [5], 779 pM; in the assay with human IFN-ω [6] it was 40 pM.

B5: IFWM3455 (antibody, V domains shown)
VH: EVQLVQSGAEVKKPGESLKISCKGSGYSFTSYWIGWVRQMPGKGLEWMGIIDPSDSDTRYSPSFQGQVTISADKSISTAYLQWSSLKASDTAMYYCARHPGLNWAPDFDYWGQGTLVTVSS
VL: DIQMTQSPSSLSASVGDRVTITCRASQSIDGYLNWYQQKPGKAPKLLIYFASSLQSGVPSRFSGSGSGTDFTLTISSLQPEDFATYYCQQSYDLPITFGQGTKVEIK
Consider B5, for which the “IC50 (pM), ISRE reporter gene assay” value in the assay with human IFN-ω [8] was determined as 24 pM.

B6: IFWM3405 (antibody, IgG1, V domains shown)
VH: EVQLVQSGAEVKKPGESLKISCKGSGYSFTSYWIGWVRQMPGKGLEWMGIIDPSDSDTRYSPSFQGQVTISADKSISTAYLQWSSLKASDTAMYYCARHPGLAWAPDFDYWGQGTLVTVSS
VL: DIQMTQSPSSLSASVGDRVTITCRASQSIANNNLNWYQQKPGKAPKLLIHWASSLQSGVPSRFSGSGSGTDFTLTISSLQPEDFATYYCQQGYDTPFTFGQGTKVEIK
On to B6, for which the “IC50 (pM), ISRE assay” value in the assay with IFN-α4a [1] was found to be 86 pM; with IFN-αI [2] it was 72 pM; with IFN-αK [3] it was 22 pM; with IFN-αJ1 [4], 26 pM; in the assay with IFN-αWA [5], 216 pM; with human IFN-ω [6], 19 pM.

B7: Fab IFWM371 (His-tagged, IgG1/kappa isotype) (Fab, V domains shown)
VH: EVQLVQSGAEVKKPGESLKISCKGSGYSFTSYWIGWVRQMPGKGLEWMGIIDPSDSDTRYSPSFQGQVTISADKSISTAYLQWSSLKASDTAMYYCARHPGLNWAPDFDYWGQGTLVTVSS
VL: not shown
notes: His-tagged Fab expressed in HEK293 cells for crystallography; C-terminal 6xHis tag; also called FabM371; Fab of IFWM371
As to B7, the binding result in assay [9] is listed as “binds”.

B8: IFWM3525 (antibody, IgG1, V domains shown)
VH: EVQLVQSGAEVKKPGESLKISCKGSGYSFTSYWIGWVRQMPGKGLEWMGIIDPSDSDTRYSPSFQGQVTISADKSISTAYLQWSSLKASDTAMYYCARHPGLNWAPDFDYWGQGTLVTVSS
VL: DIQMTQSPSSLSASVGDRVTITCRASQSIDNSYLNWYQQKPGKAPKLLIYGASSLQSGVPSRFSGSGSGTDFTLTISSLQPEDFATYYCQQGYDFPLTFGQGTKVEIK
With B8, the “IC50, ISRE reporter gene assay” value with IFN-α4a [10] is 0.042 nM; with IFN-αWA [11] it was 0.066 nM; with IFN-αG, 0.019 nM; with IFN-αK [12], 0.007 nM; with IFN-αI [13], 0.24 nM; in the assay with IFN-αJ1 [14] it was 0.084 nM. Besides, the “IC50, ISRE reporter gene assay” value came out at 0.034 nM with IFN-αC, 0.019 nM in the assay with human IFN-ω [15], 0.015 nM in the assay with IFN-αH2 and 0.082 nM in the assay with IFN-αF.

B9: IFWM3522 (antibody, IgG1, V domains shown)
VH: EVQLVQSGAEVKKPGESLKISCKGSGYSFTSYWIGWVRQMPGKGLEWMGIIDPSDSDTRYSPSFQGQVTISADKSISTAYLQWSSLKASDTAMYYCARHPGLNWAPDFDYWGQGTLVTVSS
VL: DIQMTQSPSSLSASVGDRVTITCRASQSIEGALNWYQQKPGKAPKLLIYFASSLQSGVPSRFSGSGSGTDFTLTISSLQPEDFATYYCQQAYDFPLTFGQGTKVEIK
Take B9: the “IC50, ISRE reporter gene assay” value in the assay with IFN-α4a [10] amounted to 0.163 nM; in the assay with IFN-αWA [11] it was 0.185 nM; in the assay with IFN-αG it was 0.057 nM; in the assay with IFN-αK [12] it was 0.029 nM; with IFN-αI [13], 0.124 nM; in the assay with IFN-αJ1 [14], 0.134 nM. For the same molecule, the “IC50, ISRE reporter gene assay” value with IFN-αC came to 0.077 nM; with human IFN-ω [15], 0.053 nM; in the assay with IFN-αH2 it was 0.034 nM; with IFN-αF it was 0.225 nM.

B10: IFWM3460 (antibody, V domains shown)
VH: EVQLVQSGAEVKKPGESLKISCKGSGYSFTSYWIGWVRQMPGKGLEWMGIIDPSDSDTRYSPSFQGQVTISADKSISTAYLQWSSLKASDTAMYYCARHPGLNWAPDFDYWGQGTLVTVSS
VL: DIQMTQSPSSLSASVGDRVTITCRASQSIDGFLNWYQQKPGKAPKLLIYVASSLQSGVPSRFSGSGSGTDFTLTISSLQPEDFATYYCQQSYDLPITFGQGTKVEIK
As to B10, in the assay with human IFN-ω [8], the “IC50 (pM), ISRE reporter gene assay” value was 43.5 pM.

B11: IFWM3400 (antibody, IgG1, V domains shown)
VH: EVQLVQSGAEVKKPGESLKISCKGSGYSFTSYWIGWVRQMPGKGLEWMGIIDPSDSDTRYSPSFQGQVTISADKSISTAYLQWSSLKASDTAMYYCARHPGLAWAPDFDYWGQGTLVTVSS
VL: DIQMTQSPSSLSASVGDRVTITCRASQSIADFLNWYQQKPGKAPKLLIYFASSLQSGVPSRFSGSGSGTDFTLTISSLQPEDFATYYCQQSHSFPLTFGQGTKVEIK
For B11, the “IC50 (pM), ISRE assay” value was found to be 220 pM with IFN-α4a [1]; 137 pM with IFN-αI [2]; 35 pM in the assay with IFN-αK [3]; 154 pM in the assay with IFN-αJ1 [4]; 376 pM with IFN-αWA [5]; 29 pM with human IFN-ω [6].

B12: Fab IFWM3421 (Fab, V domains shown)
VH: EVQLVQSGAEVKKPGESLKISCKGSGYSFTSYWIGWVRQMPGKGLEWMGIIDPSDSDTRYSPSFQGQVTISADKSISTAYLQWSSLKASDTAMYYCARHPGLNWAPDFDYWGQGTLVTVSS
VL: DIQMTQSPSSLSASVGDRVTITCRASQSIDGFLNWYQQKPGKAPKLLIYFASSLQSGVPSRFSGSGSGTDFTLTISSLQPEDFATYYCQQSYDLPITFGQGTKVEIK
notes: also called Fab3421; FabM3421
In the case of B12, in [16], the binding result is on record as “binds”.
